Test results: patent US20250188188A1 (DIANTHUS THERAPEUTICS OPCO, published 2025)

What was measured:
[1] = target: T1, active human C1s purified from human serum (CompTech, Tyler, TX, catalog number A104) (human, UniProt P09871 16-437; P09871 438-688); test: cell-based or functional assay
T1 sequence 1: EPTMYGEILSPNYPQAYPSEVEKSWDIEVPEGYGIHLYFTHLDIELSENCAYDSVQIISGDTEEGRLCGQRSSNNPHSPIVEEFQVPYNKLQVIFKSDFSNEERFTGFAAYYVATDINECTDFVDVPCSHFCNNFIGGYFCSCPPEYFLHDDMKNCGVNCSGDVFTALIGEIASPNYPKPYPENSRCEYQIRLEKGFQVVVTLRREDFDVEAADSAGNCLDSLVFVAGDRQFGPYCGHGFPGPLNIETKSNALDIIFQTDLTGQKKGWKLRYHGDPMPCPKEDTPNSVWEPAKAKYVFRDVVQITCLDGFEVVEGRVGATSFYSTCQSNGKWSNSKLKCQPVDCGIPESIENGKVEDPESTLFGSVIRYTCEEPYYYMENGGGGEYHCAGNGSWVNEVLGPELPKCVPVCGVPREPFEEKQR
T1 sequence 2: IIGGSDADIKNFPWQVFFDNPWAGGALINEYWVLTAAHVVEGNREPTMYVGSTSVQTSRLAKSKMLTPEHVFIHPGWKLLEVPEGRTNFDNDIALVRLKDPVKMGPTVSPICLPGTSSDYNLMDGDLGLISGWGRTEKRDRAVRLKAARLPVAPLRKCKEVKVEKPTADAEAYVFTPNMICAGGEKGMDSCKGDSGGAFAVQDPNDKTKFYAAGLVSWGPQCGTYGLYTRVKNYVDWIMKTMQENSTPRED

[2] = target: T1, active human C1s purified from human …; test: SPR (Biacore T100), 37 C pH 7.4, antibody captured via goat anti-human antibody, C1s in solution, n=2; Table 17 experiment, apart from Table 12
Experimental: (§1) Binding of MAB39 and MAB9 to Human Active C1s at 37° C./pH 7.4 Measured by Surface Plasmon Resonance. Human active C1s purified from serum was procured from Complement Technologies, Tyler, TX (catalog number A104). Studies to evaluate MAB39 and MAB9 binding to human active C1s at 37° C. were performed on a Biacore 4000 and Biacore T100 (Cytiva, Marlborough, MA), respectively. Goat anti-human antibody (ThermoFisher, Waltham, MA, USA, catalog number H10500) was amine-coupled to a C1 sensor chip (Cytiva, Marlborough, MA, USA, catalog number BR100535). MAB39 was diluted to 6.67 nM and MAB9 was diluted to 10 nM in 50 mM HEPES pH 7.4, 150 mM NaCl, 1.3 mM Ca, 0.02% Tween-20, 1 mg/mL BSA (HBS). MAB39 was captured for 60 seconds to produce surface densities of 200 RU and MAB9 was captured for 30 seconds to produce surface densities of 10 to 20 RU. Human active C1s was tested for binding using a 3-fold titration series in HBS with a maximum concentration of 12.3 nM for MAB39 and 16 nM for MAB9. Data were processed by subtracting responses from a reference surface as well as a buffer injection. […]
(§2) Comparison of Binding Affinities of MAB39 and MAB9 to Human Active C1s by Surface Plasmon Resonance. The human active C1s association constant (ka), disassociation constant (kd) and affinity (KD) for MAB39 and MAB9 were determined in separate experiments (Table 17). […]

[3] = target: T1, active human C1s purified from human …; test: SPR, direct comparison
[4] = target: T1, active human C1s purified from human …; test: SPR (Biacore T100), 37 C pH 7.4, antibody captured via goat anti-human antibody, C1s in solution, n=2
Experimental: as §1, §2

[5] = target: T1, active human C1s purified from human …; test: cell-based or functional assay; remark: listed apart in the source
[6] = target: T1, active human C1s purified from human …; test: cell-based or functional assay; remark: listed apart in the source
[7] = target: T1, active human C1s purified from human …; test: cell-based or functional assay; remark: listed apart in the source
[8] = target: T1, active human C1s purified from human …; test: cell-based or functional assay; remark: listed apart in the source

B1: IgG4-MAB9 (MAB9 in human IgG4 with S228P, L235E and YTE) (antibody)
heavy: QVQLVESGGGLVKPGGSLRLSCAASGFTFSDYYMSWIRQAPGKGLEWVSYISRSGSTKYYADSVKGRFTISRDNAKNSLYLQMNSLRAEDTAVYYCARDENYALDWWGQGTLVTVSSASTKGPSVFPLAPCSRSTSESTAALGCLVKDYFPEPVTVSWNSGALTSGVHTFPAVLQSSGLYSLSSVVTVPSSSLGTKTYTCNVDHKPSNTKVDKRVESKYGPPCPPCPAPEFEGGPSVFLFPPKPKDTLYITREPEVTCVVVDVSQEDPEVQFNWYVDGVEVHNAKTKPREEQFNSTYRVVSVLTVLHQDWLNGKEYKCKVSNKGLPSSIEKTISKAKGQPREPQVYTLPPSQEEMTKNQVSLTCLVKGFYPSDIAVEWESNGQPENNYKTTPPVLDSDGSFFLYSRLTVDKSRWQEGNVFSCSVMHEALHNHYTQKSLSLSLG
light: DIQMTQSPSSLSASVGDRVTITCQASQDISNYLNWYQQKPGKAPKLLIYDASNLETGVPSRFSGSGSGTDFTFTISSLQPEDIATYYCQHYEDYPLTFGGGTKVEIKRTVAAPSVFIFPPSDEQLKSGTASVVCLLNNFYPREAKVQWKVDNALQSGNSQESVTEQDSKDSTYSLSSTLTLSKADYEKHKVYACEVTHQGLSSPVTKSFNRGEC
notes: also called MAB9 with constant domain PE and YTE mutations
In the case of B1, the “IC50, inhibition of sensitized hRBC lysis in 25% human serum, Donor 1” value [1] is reported as 12.9 nM, the “IC50, inhibition of sensitized hRBC lysis in 25% human serum, Donor 2” value [1] is reported as 22.1 nM and the “IC50, inhibition of sensitized hRBC lysis in 25% human serum, Donor 3” value [1] is reported as 5.8 nM. For the same binder, the Kd [2] was 0.0071 nM, the “fold higher affinity than MAB2 (US20220380483A1)” value [3] was roughly 10 fold and the koff [4] was 0.00012 s⁻¹. The kon [4] was 1.69e+07 M⁻¹ s⁻¹, the “IC50, inhibition of C3b deposition on sensitized hRBCs in 7.5% human serum (flow cytometry), Donor A” value [5] was 64.1 nM and the “IC50, inhibition of C3b deposition on sensitized hRBCs in 7.5% human serum (flow cytometry), Donor B (1)” value [5] was 124 nM. For the same binder, the “IC50, inhibition of C3b deposition on sensitized hRBCs in 7.5% human serum (flow cytometry), Donor B (2)” value [5] was 202 nM, the “IC50 in the RBC lysis assay (FIG. 4C)” value [6] was 17.6 nM and the “fold improvement in potency (IC50, RBC lysis assay) against MAB2 (US20220380483A1)” value [6] was greater than 3 fold. The “IC50, inhibition of Wieslab complement classical pathway (C5b-9 ELISA), 1% human serum” value [7] was 0.78 nM and the “IC50, inhibition of sensitized hRBC lysis in 25% human serum” value [8] was 17.6 nM.
